Source: patent publication US20210189432A1 (UNIVERSITY OF UTAH RESEARCH FOUNDATION, published 2021)

B1: Drosophila Arc homolog dArc1 (Drosophila Arc1, NP_610955.1) (other, UniProt Q7K1U0 1-254, looked up)
chain: MAQLTQMTNEQLRELIEAVRAAAVGAAGSAAAAGGADASRGKGNFSACTHSFGGTRDHDVVEEFIGNIETYKDVEGISDENALKGISLLFYGMASTWWQGVRKEATTWKEAIALIREHFSPTKPAYQIYMEFFQNKQDDHDPIDTFVIQKRALLAQLPSGRHDEETELDLLFGLLNIKYRKHISRHSVHTFKDLLEQGRIIEHNNQEDEEQLATAKNTRGSKRTTRCTYCSFRGHTFDNCRKRQKDRQEEQHEE
B2: myc-Arc-WT (full-length rat WT Arc expressed in HEK293 cells) (other)
chain: MELDHMTTGGLHAYPAPRGGPAAKPNVILQIGKCRAEMLEHVRRTHRHLLTEVSKQVERELKGLHRSVGKLENNLDGYVPTGDSQRWKKSIKACLCRCQETIANLERWVKREMHVWREVFYRLERWADRLESMGGKYPVGSEPARHTVSVGVGGPEPYCQEADGYDYTVSPYAITPPPAAGELPEQESVGAQQYQSWVPGEDGQPSPGLDTQIFEDPREFLSHLEEYLRQVGGSEEYWLSQIQNHMNGPAKKWWEFKQGSVKNWVEFKKEFLQYSEGTLSREAIQRELDLPQKQGEPLDQFLWRKRDLYQTLYVDAEEEEIIQYVVGTLQPKFKRFLRHPLPKTLEQLIQRGMEVQDGLEQAAEPSVTPLPTEDETEALTPALTSESVASDRTQPE
notes: Crosslinked in situ inside transfected HEK293 cells with formaldehyde; also called WT myc-Arc; not shown: myc tag of pRK5-myc-Arc

How the values were obtained:
[1] = target: the molecule itself; test: negative stain EM of purified protein (self-assembly)
[2] = target: the molecule itself; test: formaldehyde crosslinking in situ in HEK293 cells, western blot
Protocol: Western blot samples were mixed with 4× Laemlli buffer (40% glycerol, 250 mM Tris, 4% SDS, 50 mM DTT, pH 6.8) and heated at 70° C. for 5 min. SDS-PAGE gel electrophoresis was used to separate protein samples. Separated samples were transferred to a nitrocellulose membrane (GE Healthcare). Following transfer, membranes were briefly stained with 0.1% Ponceau stain, then destained with 1% acetic acid to remove background, for imaging of total protein. […] Membranes were washed 3×10 min in 1×TBS, then incubated in an HRP-conjugated secondary antibody (Jackson ImmunoResearch) in block for 1 h at RT. After 3×10 min in 1×TBS, a chemiluminescent kit (Bio-Rad, Hercules, Calif.) was used to detect the protein bands, and the membranes were imaged on an Azure c300 gel dock (Azure Biosystems, Dublin, Calif.). Blots were analyzed and quantified using the Gel Analysis plugin in ImageJ.
Media was removed and pelleted cells were then crosslinked with 0.4% formaldehyde in PBS for 10 min with rocking at RT. Cell suspensions were immediately quenched with Tris to a final concentration of 50 mM and repelleted. […] Lysates were cleared by centrifugation at 21,000×g for 10 min at 4° C. and cleared supernatants were then run on a 4%-8% gradient gel and analyzed via western blot with antibodies for Arc (mouse monoclonal, Santa Cruz) and GFP (chicken polyclonal, Ayes).

Protein	binding result [1]	binding result [2]
B1	binds	–
B2	–	binds
